# Patent US20260137799A1, “ANTI-MUC1* ANTIBODY DRUG COMPLEXES AND USES THEREOF” (Minerva Biotechnologies Corporation, priority 2023, published 2026)
# Where a chain is given by its changes, count along the chain named.
# B1: 3C2B1-deruxtecan (antibody, V domains shown)
# VH: EVMLVESGGGLVKPGGSLKLSCAASGITFSTYTMSWVRQTPEKRLEWVATISTGGDKTYYSDSVKGRFTISRDNAKNNLYLQMSSLRSEDTALYYCARGTTAMYYYAMDYWGQGTSVTVSS
# VL: DIVLTQSPASLAVSLGQRATISCRASKSISTSDYNYIHWYQQKPGQPPKLLIYLASNLESGVPARFSGSGSGTDFTLNIHPVEEEDAATYYCQHSRELPLTFGAGTKLELK
# modifications: deruxtecan (MC-GGFG-AM-DXd) on reduced cysteine thiols of the antibody, sites not stated; deruxtecan (MC-GGFG-AM-DXd) on reduced cysteine thiols of the antibody, sites not stated; average DAR 9.2
# B2: 18G12: anti-MUC1* monoclonal antibody that bound to the PSMGFR peptide (antibody, V domains shown)
# VH: QVQLVQSGAEVKKPGASVKVSCKASGYTFTGYFLYWVRQAPGQGLEWIGGINPDNGGIDFNEKFRNRATLTVDKSSSTAYMELSSLRSEDTAVYYCTLLIGNYWGQGTLVTVSS
# VL: DVVMTQTPSSLSVTPGQPASISCKSSQSLLHSDGKTYLIWLQQKPGQSPQRLIYLVSKLDSGVPDRFSGSGSGTDFTLKISRVEAEDVGVYYCCQGTHFPWTFGQGTKVEIK
# B3: 28F9: anti-MUC1* monoclonal antibody that bound to the PSMGFR peptide (antibody, V domains shown)
# VH: B2 VH with N52H, D54S, G57D, I58T, R65K, K74I, E89D, T97A, L98R, N102V
# VL: B2 VL with T7S, S9L, P15L, K44R, Q50R, Y92F
# modifications: humanized form
# Experiments:
# MUC1*45 = MUC1*45 (UniProt P15941 1110-1255); assay: cell-based or functional assay
# [1] = test system: H1975 lung cancer cells (H1975-wt); assay: Antibody internalization (pHrodo Deep Red), H1975-wt; assay type: cell-based, human; settings: H1975 cells
# Experimental: (§1) Antibodies C2 and 3C2B1 were tested for their ability to be internalized by H1975 lung cancer cells (H1975-wt) and H1975 cells that were engineered to express high levels of a recombinant MUC1* polypeptide with a 45 amino acid extracellular domain (H1975-MUC1*45). In contrast to the T47D breast cancer cells, H1975-wt cells internalized 3C2B1 faster than they internalized C2 (FIGS. 4A1-4A28, 4C1-4C28 and 4E). Two (2) hours post incubation with H1975-wt cells, […] the cells had internalized C2. […] Similar to the T47D cells, MUC1*45 expression increased the internalization rate of C2 and decreased the internalization rate of 3C2B1 (FIGS. 4B1-4B28, 4D1-4D28 and 4E).
# (§2) Antibodies C2 and 3C2B1 were coupled to a pH sensitive fluorophore using the pHrodo Deep Red TFP Ester kit (Thermo cat #P35356), according to manufacturer instructions. Cancer cells were seeded at ˜50,000 cells/well onto μ-Slide 8-well tissue culture-treated, chambered coverslip wells (Ibidi 80806) in their recommended media with 10% FBS. Cells were cultured for 48 hours. Slides were transferred into microscope chamber (37° C.—5% CO2) and equilibrated for ˜30 minutes. The pHrodo Deep Red coupled antibody was then diluted to a concentration of 200 to 300 μg/mL into pre-warmed media supplemented with 10% FBS. Media was removed from the chamber slides and the diluted antibodies were separately added. Fluorescent (655 nm) and phase contrast images at were collected every 10 min for 12h or 16 h with a Leica Thunder Live Cell 3D microscope.
# (§3) Internalization of the fluorescently labeled antibodies was quantified as follows. Images were imported into ImageJ. The selection tool was used to draw a region of interest (ROI) on the image. The integrated pixel density (mean gray-scale value×area) was then measured by the ImageJ software. Positively-stained cells were manually counted and the integrated pixel density was divided by the number of positive cells to yield “Pixel Intensity per positive cell”.
# H1975-MUC1*45 cells = assay: Antibody internalization (pHrodo Deep Red), H1975-MUC1*45; assay type: cell-based, human; settings: H1975-MUC1*45 vs H1975-wt
# Experimental: as §1, §2, §3
# T47D = assay: xCELLigence impedance cytotoxicity, T47D; assay type: cell-based, human; settings: Example 9 (FIGS. 35-36); average over batches for DXd ADCs; read-out: IC50 for killing of breast cancer T47D-wt cells
# Experimental: (§4) An xCELLigence RTCA MP Instrument (Agilent) was used to assess real-time killing of target cancer cells). In the xCELLigence system, target cancer cells, which are adherent, are plated onto electrode array 96-well plates. Adherent cells insulate the electrode and increase the impedance. The number of adherent cancer cells is directly proportional to impedance. […] Therefore, increasing impedance reflects the growth of the cancer cells and decreasing impedance reflects the killing of the cancer cells.
# (§5) Target Cancer cells (Table 9) were seeded onto a multi-electrode well plate at a density of 5000 cells/well (100 μL of a 50,000 cells/mL stock) and incubated for 24 hr in a 37° C./5% CO2 incubator. ADCs were prepared as a 2× solution in corresponding growth media and 100 μL of each concentration was added to target cells. As a positive control (100% cell killing) cells were treated with either 1% triton or 1 μM Taxol instead of ADC. After 40-120 hours incubation in a 37° C./5% CO2 incubator cell killing was assessed. In this assay, impedance is measured in real-time. When the adherent cancer cells are killed and come off the electrode surface, impedance (insulation) decreases.
# HPAF-II = assay: xCELLigence impedance cytotoxicity, HPAF-II; assay type: cell-based, human; settings: Example 9 (FIG. 35); average; listed as 3C2B1-MC-GGFG-AM-DXd; read-out: IC50 for killing of HPAFII-wt pancreatic cancer cells
# Experimental: as §4, §5
# HPAF-II MUC1* = assay: xCELLigence impedance cytotoxicity, HPAF-II MUC1*; assay type: cell-based, human; settings: Example 9 (FIG. 35); average; read-out: IC50, HPAFII cells engineered to express MUC1*45
# Experimental: as §4, §5
# [2] = test system: CFPAC1-wt pancreatic cancer cell line; assay: xCELLigence impedance cytotoxicity, CFPAC1; assay type: cell-based, human; settings: Example 9 (FIGS. 35-36); read-out: IC50, CFPAC1-wt pancreatic cancer cells
# Experimental: as §4, §5
# (§6) To directly compare the C2 and 3C2B1 anti-MUC1* antibodies as ADC targeting domains, a panel of MUC1* positive cancer cell lines representing different cancer types were treated with C2-deruxtecan versus 3C2B1-deruxtecan (FIG. 35) or C2-MC-VA-PAB-exatecan versus 3C2B1-MC-VA-PAB-exatecan (FIG. 36). In some cases, the cancer cells were engineered to express high levels of MUC1*45.
# [3] = test system: H2110-wt lung cancer cell line; assay: xCELLigence impedance cytotoxicity, H2110; assay type: cell-based, human; settings: Example 9 (FIGS. 35-36); read-out: IC50, lung cancer H2110-wt cells
# Experimental: as §4, §5, §6
# [4] = molecular target: PSMGFR C-10 peptide (SEQ ID NO: 3) (Homo sapiens, UniProt P15941); assay: ELISA binding to PSMGFR C-10 peptide; settings: ELISA
# Description: Cancer selective anti-MUC1* antibodies bind to a membrane proximal conformational epitope within the MUC1* extracellular domain, as described in WO 2020/146902.
# The 3C2B1 epitope was mapped more precisely with additional PSMGFR peptide variants (FIGS. 2A, 2B).
# [5] = test system: MUC1 after cleavage by MMP9; assay: Binding to MUC1-expressing cells after MMP9 cleavage; assay type: cell-based
# Experimental: The binding strength of anti-MUC1* antibodies is evaluated by determining their ability to displace NMF7-AB (a MUC1* ligand) from MUC1* immobilized on the plastic surface of a 96-well plate. Because the cancer-selective MUC1* epitope is a conformational epitope, cancer-selective anti-MUC1* antibodies should not recognize MUC1* on a western blot, where the epitope is linearized. MMP9 is a protease that cleaves MUC1 to generate MUC1*. MMP9 is a predictor of poor prognosis for breast cancers. Some cancer-selective anti-MUC1* antibodies, particularly breast cancer selective antibodies, should bind to cells engineered to express MUC1 after they are contacted with MMP9 to convert the MUC1 to MUC1*.
# Chain of MUC1 after cleavage by MMP9 (P15941 1120-1255 limits assumed): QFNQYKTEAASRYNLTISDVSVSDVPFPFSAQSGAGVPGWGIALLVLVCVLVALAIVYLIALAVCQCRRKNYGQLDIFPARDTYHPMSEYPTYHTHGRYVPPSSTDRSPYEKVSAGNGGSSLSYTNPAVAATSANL
# Chain of PSMGFR C-10 peptide (SEQ ID NO: 3) (P15941 1110-1144 limits assumed): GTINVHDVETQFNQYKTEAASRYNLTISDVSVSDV
Molecule,"IC50, killing of H1975 lung cancer cells engineered to express MUC1*45 (xCELLigence) (MUC1*45) [µM]","IC50, killing of T47D breast cancer cells engineered to express more MUC1*45 (xCELLigence) (MUC1*45) [µM]",internalization rate of the ADC compared to antibody alone [1],effect of MUC1*45 expression on internalization rate (H1975-MUC1*45 cells),IC50 (T47D) [µM],IC50 (HPAF-II) [µM],IC50 (HPAF-II MUC1*) [µM],IC50 [2] [µM],IC50 [3] [µM],Does not bind C-10 [4],Recognizes MUC1 after cleavage by MMP9 [5]
B1,0.343,0.048,about the same rate as the 3C2B1 antibody alone,inhibited,0.061,> 0.303,0.16,0.034,0.09,,
B2,,,,,,,,,,0,0
B3,,,,,,,,,,0,0
